The source of these data is patent publication US20240417463A1 (ADAGENE PTE, published 2024).

Broadly, the EC50 is the concentration that produces a half-maximal response. As a reminder, the IC50 is the concentration that inhibits the measured activity by half. As usually defined, the Kd is the concentration at which binding is half-saturated. The low end stands for higher affinity, the high end for lower affinity. By koff is commonly meant the first-order rate constant of dissociation. A lower koff goes with slow dissociation. As usually defined, the kon is the second-order rate constant of association. A lower kon goes with slower complex formation.

Changes are numbered by the printed parent chain.

Assay [1] addresses T1, hCD47-ECD/Fc protein (Sinobiological) (human, UniProt Q08722 19-139, biotinylated in the Octet assay, sites not stated).
T1 construct: extracellular domain; Bought protein; also called human CD47-Fc antigen; recombinant hCD47-ECD/Fc; not shown: Fc part of the bought fusion protein
The assay is described as follows: ELISA, coated hCD47-ECD/Fc. For orientation: In an ELISA, binding on a coated surface is turned into a signal by an enzyme label.

Assay [2] concerns the target T1, hCD47-ECD/Fc protein (Sinobiological). The assay is described as follows: competition ELISA vs biotin-hSIRPα-ECD/His on coated hCD47-ECD/Fc, experiment 1.
Description: The plates were washed three times again and incubated with HRP-conjugated streptavidin at 37° C. for 1 hour. After washing, the plates were incubated with TMB substrate for 15 minutes at room temperature. The reaction was stopped by the addition of H2SO4 stop solution. Absorbance at 450 nm was measured by a microplate reader. The data was analyzed by GraphPad Prism 7.0.
The target is the same in assay [3]. The assay is described as follows: BLI (Octet RED96), biotin-hCD47-ECD/Fc on SA sensors, 1:1 model.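 Further: test antibodies as analytes, 300 s association then 300 s dissociation in running buffer, with benchmark reference antibodies run as controls.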 On the technique in general: In BLI a coated tip is dipped into the sample, and binding shifts an interference pattern.
Description: The binding affinity between antibodies and human CD47 was measured through Octet® RED96 System (ForteBio). […] After washing, the sensors were dipped into solutions containing test antibodies for 300 seconds to monitor the association phase, and then were dipped into running buffer for 300 seconds to monitor the dissociation phase. The acquired ForteBio data were processed with Data Acquisition software 7.1, and kinetic data were fitted to a 1:1 Langmuir binding model.

T1 sequence (Q08722 19-139 limits assumed): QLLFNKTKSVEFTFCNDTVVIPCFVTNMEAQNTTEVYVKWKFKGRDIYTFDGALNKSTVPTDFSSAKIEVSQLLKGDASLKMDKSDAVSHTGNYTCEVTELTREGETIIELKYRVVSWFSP

B1: TY25030 (antibody, V domains shown)
VH: EVQLVESGGGLVQPGGSLRLSCAASGYSITSGYYWSWIRQAPGKGLEWIGEIYHSGNTYYNPSLKSRVTISRDNSKNTLYLQLNSLRAEDTAVYYCARRVPLGAFDYWGQGTLVTVSS
VL: DIQLTQSPSSLSASVGDRVTITCRASQTVISRYLAWYQQKPGKAPKLLIYDASNLETGVPSRFSGSGSGTDFTLTISSLQPEDFATYYCQQYYAWPLTFGQGTKVEIKR
In assay [1], B1 came in with an EC50 of 2.42 nM. Also, the IC50 in assay [2] worked out at 21.7 nM. In assay [3], this molecule yielded a Kd of 4.62 nM, a koff of 0.00166 s⁻¹ and a kon of 361000 M⁻¹ s⁻¹.

B2: TY25033 (antibody, V domains shown)
VH: QVQLVQSGAEVKKPGSSVKVSCKASGFTFTSYAIHWVRQAPGQGLEWIGIINPNFGSTNYAQKFQGRVTITADKSTSTAYMELSSLRSEDTAVYYCARYYYGASFDVWGQGTLVTVSS
VL: DIQLTQSPSSLSASVGDRVTITCKSGQSLLHGDVKTYLYWYQQKPGKAPKLLIYDASNRATGIPSRFSGSGSGTDFTLTISSLQPEDFATYYCQQYASWPPGFTFGQGTKVEIKR
As to B2, in assay [1], the EC50 is 6.11 nM. The molecule further gave an IC50 in assay [2] above 100 nM. Further, in assay [3], the Kd is below 0.001 nM, the koff was below 1e-07 s⁻¹ and the kon was 58900 M⁻¹ s⁻¹.

B3: TY25039 (antibody, V domains shown)
VH: QVQPAQSGAEVKKPGSSVKVSCKASGYSISSGYYWGWIRQAPGQGLEWIGAISYSGSTYYSPSLKSRVTITADKSTSTAYMELSSLRSEDTAVYYCARHYLFAGSTSYDAFDIWGQGTLVTVSS
VL: DIQLTQSPSSLSASVGDRVTITCRASQSVDFYGFSFLAWYQQKPGKAPKLLIYDASNRATGIPSRFSGSGSGTDFTLTISSLQPEDFATYYCQQSYRTPLTFGQGTKVEIKR
Turning to B3, the EC50 in assay [1] was found to be 3.66 nM. The molecule also yielded an IC50 in assay [2] above 100 nM. Also, in assay [3], the affinity, expressed as Kd, was 0.141 nM; the koff turned out to be 1.37e-05 s⁻¹; the kon was 97300 M⁻¹ s⁻¹.

B4: TY25041 (antibody, V domains shown)
VH: QVQLVQSGAEVKKPGSSVKVSCKASGYSISSGHHWNWIRQAPGQGLEWIGAISYSGSTYYSPSLKSRVTITADKSTSTAYMELSSLRSEDTAVYYCARQGYYGGEGYAVDYWGQGTLVTVSS
VL: B3 VL with F34I, A38H, Q93V, S95A, Y96T, R97Q, L100F
Take B4: the response in assay [1] was half-maximal at 1.17 nM (EC50). Also, in assay [2], the IC50 was above 100 nM.

B5: TY25029 (antibody, V domains shown)
VH: EVQLVESGGGLVQPGGSLRLSCAASGYTFSNYWIHWVRQAPGKGLEWIGIIYPSSGSTKYAQKFQGRVTISRDNSKNTLYLQLNSLRAEDTAVYYCARDRAPGSSGYYDGFDYWGQGTLVTVSS
VL: DIQLTQSPSSLSASVGDRVTITCRASQSVDFHGISFLHWYQQKPGKAPKLLIYDASSLESGVPSRFSGSGSGTDFTLTISSLQPEDFATYYCHQRSTTPLTFGQGTKVEIKR
B5: a half-maximal effect in assay [1] (EC50) was put at 0.58 nM. In assay [2], this molecule displayed an IC50 above 100 nM. Also, in assay [3], binding was put at a Kd of 1.51 nM, the koff was found to be 0.000631 s⁻¹ and the kon is 417000 M⁻¹ s⁻¹.

B6: TY25035 (antibody, V domains shown)
VH: EVQLVESGGGLVQPGGSLRLSCAASGYSISSGYHWDWIRQAPGKGLEWLARIYWDGDKRYSPSLKSRLTISRDNSKNTLYLQLNSLRAEDTAVYYCARFSDGFDPWGQGTLVTVSS
VL: EIVLTQSPATLSLSPGERATLSCRASQSVDFVGISFLHWYQQKPGQAPRLLIYDASNRATGIPARFSGSGSGTDFTLTISSLEPEDFAVYYCVQGLQWPHTFGQGTKVEIKR
Consider B6, for which, in assay [1], the EC50 is 2.55 nM. This molecule yielded an IC50 in assay [2] of 60.6 nM. In assay [3], this molecule displayed a Kd below 0.001 nM, a koff below 1e-07 s⁻¹ and a kon of 171000 M⁻¹ s⁻¹.
